Laboratory results reported in patent US20240091270A1.

Molecular target: murine CD47 on mouse pancreatic beta islet cells (MIN6) (murine) (UniProt Q61735)
Experiment: cell-based or functional assay

UniProt Q61735, sequence (Q61735 19-303): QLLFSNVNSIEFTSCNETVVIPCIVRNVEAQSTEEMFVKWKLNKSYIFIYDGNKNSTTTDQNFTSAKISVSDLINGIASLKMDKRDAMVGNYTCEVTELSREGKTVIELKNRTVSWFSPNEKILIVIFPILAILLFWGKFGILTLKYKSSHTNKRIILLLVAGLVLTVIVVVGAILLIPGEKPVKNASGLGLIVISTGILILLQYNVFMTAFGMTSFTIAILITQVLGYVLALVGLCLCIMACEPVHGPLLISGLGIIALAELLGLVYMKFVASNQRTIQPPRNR

relative increase in insulin protein content in glucose stimulated mouse pancreatic beta islet cells relative to vinculin (SDS-PAGE band density): > 2 fold
Substance: anti-CD47 blocking antibody (clone MIAP301, SC-12731, Santa Cruz Inc.)
